According to the supplement of paper PMC9170038:

System: MS2 coat protein
Assay: apparent KD of MS2 coat protein; higher = weaker reporter binding
Conditions: Eterna round: R107
Method in brief: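 In 100 mM Tris-HCl pH 7.5 with 80 mM KCl and 4 mM MgCl2, and without or with constant ligand, SNAP-549-labelled MS2 coat protein was titrated in twofold steps from 0.7 or 1.5 nM to 3 µM. Per-step times went from 0.8–1.5 h down to 10–20 min. The RNA switches were transcribed on-chip from Illumina sequencing clusters, and apparent KD is the per-design median of normalised cluster binding-curve fits.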

[1] = input ligand: theophylline 20 uM
[2] = input ligand: tryptophan 2.4 mM
[3] = input ligand: theophylline 2 mM

| Sequence | apparent KD of MS2 coat protein (input ligand: arginine 13.2 mM) | apparent KD of MS2 coat protein [1] | apparent KD of MS2 coat protein [2] | apparent KD of MS2 coat protein [3] | apparent KD of MS2 coat protein (input ligand: none) |
| --- | --- | --- | --- | --- | --- |
| AGCGACAUGCAUGAUACCAGCUACAUGAGGAUCACCCAUGUACGUCAGUAAUGACUGUGUAGCCCUUGGCAGCAUAGAGCAUGUU [Exclusion - Theophylline B (Freestyle 15)] | 0.0157 µM | 0.0293 µM | 0.0165 µM | – | – |
| GCAUCCUAGUCGGCCGCCACUACAACAUGAGGAUCACCCAUGUGUGGGAGAUCCGUCCUACGAAGUAGGACCGGGACUAGGAUGC [(T1)-(M1)-(M2)-(T)''-(M)'-(T)'-(T2)_Design5_2/18/17] | 0.11 µM | 0.337 µM | – | 0.324 µM | – |
| UGGAGAUAGACGGCCGCCACUAACAUGAGGAUCACCCAUGUCGUCACGAAUGGAUGGCCCUAGAAUAGGACCGGGUCCGGAUUCA [theeternabot_exclusion_MS2_Trp_B_48] | 0.0237 µM | 0.0425 µM | – | 0.0506 µM | – |
| AGUAAUCUAUCAGAUACCAGACCCUCUUUAACAUGAGGAUCACCCAUGUCUAUGUUCUACGUCCCUUGGCAGCUGUAAAUGAUAA [JR_SSTheophyB_Sub002] | 0.0349 µM | 0.08 µM | 0.0577 µM | – | – |
| CCUAUGCAGUCGGCCGCCACUGUACAUGAGGAUCACCCAUGUUCCAAAAUAAAAGGAACUGAAAUCAGGACCGGGACUGUAUAGG [Ex Tryptophan B 1] | 0.0294 µM | 0.0372 µM | 0.0326 µM | 0.039 µM | 0.0333 µM |
| AAAGUUGAUGAGUUGUGUUUGUGUUCGGAAGGAGCGGGAAUUAUCUCAGGUAGGUCGCCGAACAUGAGGAUCACCCAUGUAUAAA [XArg-A 18 NuV2 original #dotplot2>1] | 0.0402 µM | 0.0801 µM | 0.0826 µM | 0.206 µM | 0.0987 µM |
| CGUAUGUAGACGGCCGCCACUGGAACCUGAGGAUCACCCAGGUACAGGGUGGGUAACUCGAGAGUCAGGACCGGGUCUACAUACA [Tryp B Ex t3] | 0.0194 µM | 0.0651 µM | 0.0386 µM | 0.0643 µM | 0.042 µM |
| ACAUGAGGAUCACCCAUGUAAGGUCUUGAUACCAGACGCGAAGUAGUCCCUUGGCAGCAAAUACGUGAGGGUCGCACAUGUGUAA [mcnmullin] | 0.0184 µM | 0.0359 µM | 0.0278 µM | 0.0598 µM | 0.0331 µM |
| UGAUGGUGCGGAAGGAGCGUGUAAGAACAAGAACAUGAGGAUCACCCAUGUAUUAAUUUAACACAGGUAGGUCGCCGUGUUAUUG [11.K] | 0.0296 µM | 0.0393 µM | 0.0202 µM | 0.0296 µM | 0.0355 µM |
| CUAAGAGUAGGAAGGAGCGACAUGAGGAUCACCCAUGUGGCUCUCAUGGCCCGGGUCUUAUGUCAGGUAGGUCGCCUACUGUUUA [Solave] | 0.0136 µM | 0.0219 µM | 0.0141 µM | 0.0171 µM | 0.0144 µM |
| GGUUACUCUACGGCCGCCACUGAUUAAUUAUAAUCCUGUACAUAAACAUGAGGAUCACCCAUGUACAGGACCGGGUAGUGUAACC [Tryptophan B 10] | 0.0323 µM | 0.0462 µM | – | 0.0363 µM | – |
| AAUAAGAUCCUCAUGUGAGUCGUACCAUAACGAGGACCGGUACGGCCGCCACUCGAACAUGAGGAUCACCCAUGUAGGUACGACA [M'-T'-T-MS2-T'' - Design 8] | 0.0498 µM | 0.32 µM | – | 0.882 µM | – |
| CUAUAAGUAACUGAUACCAGUGUACUGACAUGAGGAUCACCCAUGUUGGGUUUUGUUGUACACCCUUGGCAGCAGAAUCUUAUAG [AstrosExyTheB#14] | 0.0389 µM | 0.0703 µM | 0.0725 µM | 0.111 µM | 0.0638 µM |
| AUUACAUGAGCAUCAGCACAUGAGGAUCACCGAGGACCGGUACGGCCGCCACUCGACACAUGAGGAUCACCCAUGUGUUGUUGUU [Exclusion Tryptophan A 3] | 0.0246 µM | 0.345 µM | – | 0.281 µM | – |
| ACGACGCAUAGUGAUACCAGUACAACAUGAGGAUCACCCAUGUCACAUAUGUUGUAAUAGUGCCCUUGGCAGCACUAUGCGUCAG [SSTheo B #3] | 0.0944 µM | 0.106 µM | 0.125 µM | – | – |
| UACACAUGACAUGAUACCAGCCCAUGUGAACAUGAGGAUCACCCAUGUAUGAGGACAUGAGGCCCUUGGCAGCAUGUAUACAUGA [Same State Theophylline B 2] | 0.0116 µM | 0.0127 µM | 0.0114 µM | – | – |
| ACGAUAGGGCAUGAGGAUCACCCAUGUGAUACCAGCCUGGAAACAGGCCCUUGGCAGCAUUAAUACUCCAAUAACCUAUCGAAUA [TheoAX 17 #MicroSwitchBubble #AlternativeMS2] | 0.0915 µM | 0.184 µM | 0.111 µM | 0.864 µM | 0.129 µM |
| UUGAUUACCCAAGCGUGAUGGUCCUAGGAACGAGGACCGGUACGGCCGCCACUCGCAAGCAAACAUGAGGAUCACCCAUGUUUAU [theeternabot_exclusion_MS2_Trp_A_19] | 0.0112 µM | 0.0159 µM | – | 0.0141 µM | – |
| AAACAUGAGGCGGCCGCCACUGUAUGAACAUGAGGAUCACCCAUGUAUGUACCCAUGUGUGUACACAGGACCGGGCCAUGUGGAU [Exclusion Tryptophan B 4] | 0.0248 µM | 0.0323 µM | – | 0.0278 µM | – |

| Sequence | apparent KD of MS2 coat protein (input ligand: arginine 13.2 mM) | apparent KD of MS2 coat protein [1] | apparent KD of MS2 coat protein [2] | apparent KD of MS2 coat protein [3] | apparent KD of MS2 coat protein (input ligand: none) |
| --- | --- | --- | --- | --- | --- |
| GGAUAGGACACGGCCGCCACUACCUAGGAUACUAGCAACAUUUGGGUGCACGAGGAUCACCCGUGUAGGACCGGGUGUCCUAUCG | 0.202 µM | 0.115 µM | 0.291 µM | 0.102 µM | 0.0725 µM |
| ACCUUACAUGAGGAUCACCCAUGUCGUGAUACCAGAAACCACGUAUUCCCUUGGCAGCACACCCGUGAUGAGAUUGUCGGUUUUG [theeternabot_sameState_MS2_Theo_A_43] | 0.0422 µM | 0.0863 µM | 0.0492 µM | – | – |
| UCGUUUUAGUCGGCCGCCACUGUAUGCAUGUUUAACAUGAGGAUCACCCAUGUCCCGUACUAUUUCAGGACCGGGACGUAAUCGA [JR_SSTryptoB_Sub007] | 0.14 µM | 0.301 µM | – | 0.484 µM | – |
| GGUCUCUGGAGCGAUACCAGCUUGAGUGUACUGGCCAGGUACAUGAGGAUCACCCAUGUAAGCCCUUGGCAGCGCUCCAGAGACC [#1 Exclusion - Theophylline B Attempt #15 (HarryS)] | 0.00919 µM | 0.014 µM | 0.011 µM | 0.0447 µM | 0.00921 µM |
| GUACAUGAGGAUCACCCAUGUAUAGUUGAAGGAGCGACCGGUGGGUCAGGUAGGUCGCAGCGCAUGGCGUCAACCCGUGUAUGCC [#1 Exclusion - Arginine A Attempt #27 (Inspired by Pi)] | 0.0138 µM | 0.0248 µM | 0.0179 µM | 0.021 µM | 0.0172 µM |
| AAGAUACUCUGAAGGAGCGGCAUAAAACAUGAGGAUCACCCAUGUGCGCGGGUGUAAUUAUGCCAGGUAGGUCGCAGAGUAUUUA [#03 Same State - Arginine B] | 0.168 µM | 0.373 µM | 0.412 µM | 0.629 µM | 0.401 µM |
| UACUUGCUGACGGCCGCCACUAGAACAUGAGGAUCACCCAUGUACCCGGUCCUAAUCCUCAUGACUAGGACCGGGUCAGCAAGAU [(Trp1)-(Ms2)-(T)'-(M)'-(Trp2)_Design2] | 0.0264 µM | 0.0421 µM | – | 0.0355 µM | – |
| UUUACAUGAGGAUCACCCAUGUGCCAUGAUACCAGACAUGAAAAUGUCCCUUGGCAGCAUGAGUGAUUCAUCCGAAAGGAUGUUU [Jehnice] | 0.114 µM | 0.146 µM | 0.103 µM | – | – |
| UGUUAUGUGGGAAGGAGCGCAUACUUCACAUGAGGAUCACCCAUGUCAAGACGUGAGUCAGUGCAGGUAGGUCGCCUAGUUAAGA [Same State - Arginine B (Freestyle 17)] | 0.036 µM | 0.0751 µM | 0.045 µM | 0.0788 µM | 0.0739 µM |
| GGAAACCAAAGCGAUACCAGCGUACAUGAAAAGAGCGAAAACAUGAGGAUCACCCAUGUACGCCCUUGGCAGCGCAAAACCAAGG | 0.0214 µM | 0.0508 µM | 0.0333 µM | 0.103 µM | 0.0443 µM |
| UACAUGAGGAUCACCCAUGUAUGAAGGGAUACCAGCGACAGUAAGCGCCCUUGGCAGCCCGUGAAUAAAGGGUGGGUAAAAUAGU [Exclusion Theophyline A GF 3] | 0.0269 µM | 0.0309 µM | 0.0161 µM | 0.0394 µM | 0.0214 µM |
| UACUUGCUGACGGCCGCCACUAGAACAUGAGGAUCACCCAUGUACCCGGUCCUACAUGGGAUGACUAGGACCGGGUCAGCAAGAU [(Trp1)-(Ms2)-(T)'-(M)'-(Trp2)_Design3] | 0.0396 µM | 0.0724 µM | – | 0.0685 µM | – |
| UUAAUCUUAGAAGAAAACUUUUAAGCAGAAGGAGCGUGAUAAAACACAGGUAGGUCGCUGAAGGGAACAUGAGGAUCACCCAUGU [AstrosSSArgA#18] | 0.0293 µM | 0.0289 µM | 0.0231 µM | 0.0294 µM | 0.022 µM |
| AUGGAGACCUCGGCCGCCACUCUCCAUGAGGAUCUCCCAUGUAACAUGAGGAUCACCCAUGUGCUGAGGACCGGGAGGUCCUGAA [Same State Tryptophan B GF 18] | 0.0092 µM | 0.0158 µM | – | 0.0125 µM | – |
| AUAUAUAUAUAGAAAUAUAUAUAUAUGUAACGAGGACCGGUACGGCCGCCACUCGUGCCGGUGAUAACAUGAGGAUCACCCAUGU [Ex_TrypA - Every engine approves!] | 0.0198 µM | 0.0209 µM | 0.02 µM | 0.0203 µM | 0.016 µM |
| UGUAACAUGAGGAUCACCCAUGUGAGUGAUACCAGACUAGUAUUAGUCCCUUGGCAGCACGUUGGGCGAGUGUAUAGUCUAUGCG [Same State - Theophylline A (Freestyle 14)] | 0.0896 µM | 0.113 µM | 0.0803 µM | – | – |
| AUGCACCUCGUCCAGGCAAUCUUUAGUGAUACCAGCUAACUCCUUGGCCCUUGGCAGCACAUGAGGAUCACCCAUGUGCGACAUC [Tidile] | 0.0111 µM | 0.0149 µM | 0.0139 µM | – | – |
| AGACCCUUCACGGCCGCCACUCAUUUUAAGUAGAGAGAGUACAUGAGGAUCACCCAUGUGAGAGAGAGGACCGGGUGAGAUAUUA [ss-trypB-0] | 0.0139 µM | 0.0214 µM | – | 0.0213 µM | – |
